In doi:10.1101/2023.01.23.525191, “Mechanism of an alternative splicing switch mediated by cell-specific and general splicing regulators” (bioRxiv, 2023):

How the values were obtained:
[1] = molecular target: the molecule itself; experiment: SEC; size exclusion chromatography of recombinant untagged protein; dimer and higher-order assemblies
[2] = molecular target: the molecule itself; experiment: AUC; sedimentation velocity, 500 mM KCl, 20 mM HEPES, 1 mM TCEP, pH 7.9, 20 °C; FL 0.46 and ΔC20 0.57 mg/ml as printed; dimers and higher-order oligomers

B1: recombinant untagged full length rat RBPMS-A (natural protein)
chain: not shown
notes: RBPMS isoform A (RBPMS-A), rat, cDNA NCBI XM_006253240.2, full length open reading frame; it may be the rat protein; Exists as a mixture of dimers and higher-order oligomers; also called FL RBPMS; FL; source: E. coli BL21 (DE3), purified (Histrap, TEV cleavage, mono Q, Superdex 200); not shown: His6, N-terminal, cleaved
stoichiometry N [1]: 2 | stoichiometry N [2]: ~21
